Sequences and labels used below:
B1: LINE1-full (parent)
chain: UACGUAGGUGGUUUUCCCCUGAUAGUGCUAAGGGGGCCUGGAAGUUUGGACUGGGCAGAGCUCAACACAGCGUGGCAAAGUGGCUGUGGCUAGACUGCCUCUCUGGAUUCCUCGUCACUCAGCAGGGCAUCUCUGAGAGAAAUGCC

In the data set the parent is B1. The data set is described as follows: self-cleavage, relative activity (ratio to wild type); higher = more cleavage; in vitro, sequencing; the parent is a self-cleaving ribozyme.
Consider G40A U104A, for which the self-cleavage came to 0.75.
Regarding U39C C99U, the self-cleavage is 0.5.
For the variant G40A A79U, the self-cleavage stood at 1.13.
In the case of G40A A77G, the self-cleavage was 1.02.
The value for A42U U87A was 0.07; that for U39A U115C was 1.31; that for U39A U115A was 1.42.
Take A42G U87C: the self-cleavage was 0.41.
The value for A42G U87A was 0.1; that for A42U A65G was 0.06; that for A42U U96C was 0.06.
The figure for G40U A92G is 0.02.
Consider G41A A121G, for which the self-cleavage amounted to 1.15.
Take A42U U52C: the self-cleavage was determined as 0.54.
The figure for A43C U109C is 0.26; for A42G A78U it is 1.66.
The figure for G41A U85A is 0.
The figure for G41A U85G is 0.09.
Regarding G41A U85C, the self-cleavage came to 0.05.
Consider U39G U45G, for which the self-cleavage came to 1.05.
As for A42G A121G, the self-cleavage turned out to be 1.59.
Regarding A42G A121U, the self-cleavage worked out at 1.4.
The value for U39G A67G was 1.2; that for A42G A117G was 1.71.
The value for G40A U112C was 0.89; that for A42G A67U was 0.17.
Take U39C U96A: the self-cleavage came to 0.08.
The value for U39C U96C was 0.05; that for A42G C51A was 2.3; that for A42G U73C was 1.5.
The figure for G40A A129C is 1.63; for G41C U134C it is 1.76; for U39G C123U it is 0.
The value for U39C U73C was 2.09.
With U39C U73A, the self-cleavage stood at 1.
U39C U73G: the self-cleavage is 1.08.
The value for A42U A92G was 0.09; that for A42U U85C was 0.13.
With U39C G53U, the self-cleavage turned out to be 1.26.
As to A42G U45C, the self-cleavage was found to be 1.2.
On to U39C U112C, for which the self-cleavage was determined as 1.24.
Regarding G41U U143C, the self-cleavage is 1.47.
The figure for G40A A124G is 0.52.
For the variant A42U C120U, the self-cleavage came to 0.4.
The figure for U39A U134C is 1.3; for G40A A43G it is 1; for U39C A69G it is 0.39.
For U39G, the self-cleavage came to 1.46.
The value for U39C was 1.14.
On to A43C G105U, for which the self-cleavage worked out at 1.53.
Turning to A43C A79G, the self-cleavage worked out at 0.75.
Regarding G41C U46A, the self-cleavage was determined as 0.25.
For A42G U143A, the self-cleavage stood at 1.85.
A42G U143C: the self-cleavage was found to be 1.3.
The value for U39C A140U was 1.22; that for U39C A140G was 1.3; that for U39C G114A was 1.04.
On to U39C C131U, for which the self-cleavage turned out to be 1.
The value for U39G U85C was 0.14.
The value for U39G U85A was 0; that for A42G U134C was 1.36.
The value for G41U U45A was 1.14; that for G40A C131U was 0.76; that for G40A U81C was 1.04.
A42U U115G: the self-cleavage is 1.04.
On to A42U U115A, for which the self-cleavage is 1.39.
As for A42U U115C, the self-cleavage worked out at 1.15.
The figure for G41U U62A is 0.04.
Consider G41U U62C, for which the self-cleavage was 0.04.
In the case of U39C A121U, the self-cleavage turned out to be 1.04.
For the variant U39C A121C, the self-cleavage turned out to be 1.37.
U39C A121G: the self-cleavage stood at 1.67.
In the case of A42G, the self-cleavage amounted to 1.38.
The value for A42C was 0.92.
The figure for A42U is 0.98; for G41U C145U it is 0.75; for U39C A57U it is 0.06.
In the case of A42G G139A, the self-cleavage stood at 1.28.
The figure for A42G U108A is 0.71; for A42C U134A it is 0.83; for U39C G55A it is 0.08.
On to G41A U62C, for which the self-cleavage was found to be 0.08.
Consider G40A G53A, for which the self-cleavage came to 0.74.
The figure for A42U U109C is 0.71.
In the case of A42G U47C, the self-cleavage is 1.54.
The figure for A42G U47G is 0.88.
For U39C U108C, the self-cleavage is 1.92.
The value for A42G U112C was 1.54; that for U39C C113U was 1.26.
The value for A42U A141G was 0.9; that for A42U A67G was 0.21.
The figure for A42U A78G is 0.88; for A42G C71G it is 0.35.
In the case of A42G A64G, the self-cleavage was found to be 0.28.
Turning to G40A A57U, the self-cleavage came to 0.05.
For the variant G41A A69U, the self-cleavage is 0.06.
With A42G G88A, the self-cleavage was 0.09.
The figure for U39C A117U is 1.49; for U39C A117G it is 1.37.
Consider G41C, for which the self-cleavage was determined as 1.22.
The value for G41U was 1.19; that for G41A was 1.16.
The value for U39A U132C was 1.38; that for G41C U115A was 1.88.
The value for U39C G72A was 1.07.
In the case of A42G G127U, the self-cleavage was 1.9.
As to G40A G82A, the self-cleavage was 1.73.
With U39G U109C, the self-cleavage worked out at 1.87.
The value for G40A A64C was 0.18.
In the case of G40A A64U, the self-cleavage was 0.38.
Turning to A42C A92C, the self-cleavage is 0.
As to A42G A136G, the self-cleavage was found to be 1.53.
The figure for A42G A136U is 1.4; for U39G U52C it is 0; for U39C A42U it is 0.73.
With U39G A138G, the self-cleavage came to 1.01.
As to A42U G53A, the self-cleavage was 1.72.
For A42C G53A, the self-cleavage worked out at 1.22.
As to U39A U130A, the self-cleavage came to 1.38.
Turning to U39G A129U, the self-cleavage was found to be 1.44.
The figure for A42G A124G is 0.87; for A42G A124C it is 2.96.
As to U39C U102A, the self-cleavage is 1.03.
For the variant A42G A59G, the self-cleavage was found to be 0.11.
The figure for U39C G105U is 0.85; for G41U A121G it is 1.53; for G40C A42G it is 1.09.
The figure for G41U A94G is 0.05; for A42C A43G it is 1.13; for A42C A43U it is 0.72.
The figure for A43C A65U is 0.14; for G41A A142G it is 1.18; for U39C A141G it is 1.11.
As for U39C A79U, the self-cleavage is 1.2.
The value for A42U U119A was 0.98; that for G40A A69G was 0.49; that for A42G G83A was 0.96.
On to G40A U115C, for which the self-cleavage was 1.18.
Take G40A U115A: the self-cleavage came to 1.17.
As for A42G G106U, the self-cleavage amounted to 1.1.
The value for G41A U47A was 1.77; that for G40A G106A was 1.23; that for U39A U143C was 1.42.
For U39C A64U, the self-cleavage was found to be 0.35.
The value for U39C U91A was 0.39.
The figure for U39C A107G is 1.36.
The value for G40C U45C was 0.75; that for G41U C103A was 1.11; that for U39C C63U was 0.25.
Take U39C C63A: the self-cleavage was 0.05.
The figure for G41A A129U is 1.42; for A42C G93A it is 0.03; for A42G U104C it is 1.81.
For the variant A42G U104A, the self-cleavage was 1.13.
The value for U39G G74A was 0.97; that for U39C A94G was 0.11; that for U39C U45A was 0.87.
The figure for U39C U45G is 1.17.
The figure for A42U U134A is 1.09.
Take A42U U134C: the self-cleavage was determined as 1.34.
The figure for U39C C123U is 0.9.
The figure for U39C G75A is 0.83; for A42U G82A it is 1.38.
With U39C G127U, the self-cleavage came to 0.87.
In the case of A42G A138C, the self-cleavage was found to be 0.41.
As to U39C A65G, the self-cleavage is 0.09.
The value for G40U A140U was 1.79.

The values are drawn from the RNAGym collection of RNA variant scans (doi:10.7554/elife.90254).
